Where two headings read alike, the source gives them in different places.

Common to all, as to test: peptide ELISA, OD 655 nm
A general note: ELISA stands for enzyme-linked immunosorbent assay.

Test [1] concerns the target T1, E619A peptide (HER2 603-622 with E619A) (human).
T1 peptide: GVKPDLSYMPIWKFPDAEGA

The target of test [2] is T2, HER2_604-622C peptide (NH2-VKPDLSYMPIWKFPDEEGAC-COOH) (human).
T2 construct: KLH was added for immunisation, the peptide itself was coated in the screening ELISA
T2 peptide: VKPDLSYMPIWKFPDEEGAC

Test [3] addresses T3, P612A peptide (HER2 603-622 with P612A) (human).
T3 peptide: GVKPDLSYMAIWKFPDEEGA

Test [4] addresses T4, W614A peptide (HER2 603-622 with W614A) (human).
T4 peptide: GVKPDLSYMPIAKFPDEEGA

The target of test [5] is T5, P617A peptide (HER2 603-622 with P617A) (human).
T5 peptide: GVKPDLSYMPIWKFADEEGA

Test [6] addresses T6, K615A peptide (HER2 603-622 with K615A) (human).
T6 peptide: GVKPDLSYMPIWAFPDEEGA

Test [7] has as its target T7, V604A peptide (HER2 603-622 with V604A) (human).
T7 peptide: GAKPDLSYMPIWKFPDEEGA

Test [8] concerns the target T8, G603A peptide (HER2 603-622 with G603A) (human).
T8 peptide: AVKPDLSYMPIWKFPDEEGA

For test [9], the target named is T9, L608A peptide (HER2 603-622 with L608A) (human).
T9 peptide: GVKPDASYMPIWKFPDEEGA

Test [10] concerns the target T10, P606A peptide (HER2 603-622 with P606A) (human).
T10 peptide: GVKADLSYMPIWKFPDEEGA

Test [11] has as its target T11, HER2 peptide p603-622 (amino acids 603 to 622 of human HER2) (human).
T11 construct: Synthetic peptide; also called wild-type HER2 peptide
T11 peptide: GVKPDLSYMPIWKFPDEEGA

Test [12] addresses T12, D607A peptide (HER2 603-622 with D607A) (human).
T12 peptide: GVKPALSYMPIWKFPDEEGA

Test [13] has as its target T13, Y610A peptide (HER2 603-622 with Y610A) (human).
T13 peptide: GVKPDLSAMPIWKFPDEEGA

The target of test [14] is T14, S609A peptide (HER2 603-622 with S609A) (human).
T14 peptide: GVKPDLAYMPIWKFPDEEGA

Test [15] deals with T15, K605A peptide (HER2 603-622 with K605A) (human).
T15 peptide: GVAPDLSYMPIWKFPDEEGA

Test [16] has as its target T16, I613A peptide (HER2 603-622 with I613A) (human).
T16 construct: also called 1613A
T16 peptide: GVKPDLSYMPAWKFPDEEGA

Test [17] addresses T17, M611A peptide (HER2 603-622 with M611A) (human).
T17 peptide: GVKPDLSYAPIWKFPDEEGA

Test [18] addresses T18, D618A peptide (HER2 603-622 with D618A) (human).
T18 peptide: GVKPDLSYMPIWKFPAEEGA

Test [19] deals with T19, E620A peptide (HER2 603-622 with E620A) (human).
T19 peptide: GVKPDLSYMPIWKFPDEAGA

In test [20] the target is T20, G621A peptide (HER2 603-622 with G621A) (human).
T20 peptide: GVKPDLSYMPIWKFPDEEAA

Test [21] concerns the target T21, F616A peptide (HER2 603-622 with F616A) (human).
T21 peptide: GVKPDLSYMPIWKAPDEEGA

The target of test [22] is T1, E619A peptide (HER2 603-622 with E619A).
Test [23] has as its target T2, HER2_604-622C peptide ….
The target of test [24] is T3, P612A peptide (HER2 603-622 with P612A).
Test [25] addresses T4, W614A peptide (HER2 603-622 with W614A).
Test [26] addresses T5, P617A peptide (HER2 603-622 with P617A).
The target of test [27] is T6, K615A peptide (HER2 603-622 with K615A).
In test [28] the target is T7, V604A peptide (HER2 603-622 with V604A).
The target in test [29] is T8, G603A peptide (HER2 603-622 with G603A).
Test [30] addresses T9, L608A peptide (HER2 603-622 with L608A).
Test [31] addresses T10, P606A peptide (HER2 603-622 with P606A).
The target of test [32] is T11, HER2 peptide p603-622 (amino acids 603 …).
Test [33] has as its target T12, D607A peptide (HER2 603-622 with D607A).
The target in test [34] is T13, Y610A peptide (HER2 603-622 with Y610A).
The target in test [35] is T14, S609A peptide (HER2 603-622 with S609A).
Test [36] concerns the target T15, K605A peptide (HER2 603-622 with K605A).
The target in test [37] is T16, I613A peptide (HER2 603-622 with I613A).
For test [38], the target named is T17, M611A peptide (HER2 603-622 with M611A).
In test [39] the target is T18, D618A peptide (HER2 603-622 with D618A).
The target in test [40] is T19, E620A peptide (HER2 603-622 with E620A).
Test [41] addresses T20, G621A peptide (HER2 603-622 with G621A).
For test [42], the target named is T21, F616A peptide (HER2 603-622 with F616A).

B1: H2Mab-283 antibody (antibody, mouse IgG1, kappa, V domains shown)
VH: EVQLVESGGGLVQPGGSLKLSCAASGFTFSSYGMSWVRQTPDKRLELVATINSNGGSTFYPDSVKGRFTISRDNAKNTLYLHMSSLKSEDTAIYYCVSPGSWFPYWGRGTLVTVSA
VL: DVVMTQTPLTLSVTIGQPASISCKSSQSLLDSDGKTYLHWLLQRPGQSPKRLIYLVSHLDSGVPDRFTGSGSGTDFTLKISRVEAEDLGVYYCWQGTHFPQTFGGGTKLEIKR
Regarding B1, the binding result is “binds” in test [1]; “binds” in [2]; “binds” in test [3]; “no binding (tested: 10 ug/ml)” in test [4]; “binds” in [5]; “binds” in test [6]. The binding result in test [7], in test [8], in test [9], in test [10], in [11] and in test [12] was “binds” in each case. The binding result in [13], in test [14], in test [15], in test [16], in [17] and in [18] was “binds” throughout. The binding result in test [19], in [20] and in test [21] was “binds” each time.

B2: H2Mab-284 antibody (antibody, mouse IgG1, kappa, V domains shown)
VH: QVTLKESGPGILQPSQTLSLTCSFSGFSLSTSGVGVGWIRQPSGKGLEWLAHIWWDDDKNYNPALKSRLTISKDTSTNQGFLKIASVDTADTATYFCARIEGQKGFAYWGQGTLVTVSA
VL: DIVMSQSPSSLAVSVGEKVTMSCKSSQSLLYSRNQKNYLAWYQQKPGQSPKLLIYWASTRESGVPDRFTGSGSGTDFTLTISSVKAEDLAVYYCQQYYSSPYTFGGGTKLEIKR
Take B2: the binding result in [1] was “binds”; in [2] it was “binds”; in test [3] it was “binds”; in test [4] it was “binds”; in test [5], “binds”; in [6], “no binding (tested: 10 ug/ml)”. Moreover, the binding result in [7], in test [8], in test [9], in [10], in test [11] and in test [12] was “binds” in each case. Besides, the binding result in test [13], in test [14], in test [15], in [16], in test [17] and in test [18] was “binds” in each case. In addition, the figures for the binding result in [19], in test [20] and in [21] were “binds”, “binds” and “no binding (tested: 10 ug/ml)”, respectively.

B3: H2Mab-279 antibody (antibody, mouse IgG3, V domains shown)
VH: EVQLVESGGGLVQPGGSLKLSCAASGFSFSSYGIFWVRQTPDKRLELVATIKSNGGRTYYPDSVKGRFTISRDNAKNTLHLQMSSLKSEDTAMYYCAREGGDYWGQGTSVTVSS
VL: DIVMTQSHKIMSTSVGDRVSISCKASQDVGTAVAWYQQKPGQSPILLIYWASTRHTGVPDRFTGSGSGTDFTLTISNVQSEDLADYFCQQYKSNPLTFGAGTKLELKR
With B3, the binding result in [22], in [23], in test [24], in test [25], in [26] and in [27] was “binds” throughout. In addition, the binding result in test [28], in [29], in test [30], in test [31], in test [32] and in [33] was “binds” throughout. Moreover, the binding result in test [34], in [35], in test [36], in test [37], in test [38] and in [39] was “binds” in each case. Moreover, the binding result in test [40], in test [41] and in test [42] was “binds” in each case.

The record behind these values is patent US20240002531A1 (ONO PHARMACEUTICAL, published 2024).
